# Results as given in IntAct's records for PubMed 11278869.
# B1: Ropporin-1B (Homo sapiens), Q9BZX4 (parent)
# chain: MAQTDKPTCIPPELPKMLKEFAKAAIRAQPQDLIQWGADYFEALSRGETPPVRERSERVALCNWAELTPELLKILHSQVAGRLIIRAEELAQMWKVVNLPTDLFNSVMNVGRFTEEIEWLKFLALACSALGVTITKTLKIVCEVLSCDHNGGLPRIPFSTFQFLYTYIAEVDGEICASHVSRMLNYIEQEVIGPDGLITVNDFTQNPRVWLE
# B2: A-kinase anchor protein 3 (Homo sapiens), O75969 (parent)
# chain: MSEKVDWLQSQNGVCKVDVYSPGDNQAQDWKMDTSTDPVRVLSWLRRDLEKSTAEFQDVRFKPGESFGGETSNSGDPHKGFSVDYYNTTTKGTPERLHFEMTHKEIPCQGPRAQLGNGSSVDEVSFYANRLTNLVIAMARKEINEKIDGSENKCVYQSLYMGNEPTPTKSLSKIASELVNETVSACSRNAAPDKAPGSGDRVSGSSQSPPNLKYKSTLKIKESTKERQGPDDKPPSKKSFFYKEVFESRNGDYAREGGRFFPRERKRFRGQERPDDFTASVSEGIMTYANSVVSDMMVSIMKTLKIQVKDTTIATILLKKVLLKHAKEVVSDLIDSFLRNLHSVTGTLMTDTQFVSAVKRTVFSHGSQKATDIMDAMLRKLYNVMFAKKVPEHVRKAQDKAESYSLISMKGMGDPKNRNVNFAMKSETKLREKMYSEPKSEEETCAKTLGEHIIKEGLTLWHKTQQKECKSLGFQHAAFEAPNTQRKPASDISFEYPEDIGNLSLPPYPPEKPENFMYDSDSWAEDLIVSALLLIQYHLAQGGRRDARSFVEAAGTTNFPANEPPVAPDESCLKSAPIVGDQEQAEKKDLRSVFFNFIRNLLSETIFKRDQSPEPKVPEQPVKEDRKLCERPLASSPPRLYEDDETPGALSGLTKMAVSQIDGHMSGQMVEHLMNSVMKLCVIIAKSCDASLAELGDDKSGDASRLTSAFPDSLYECLPAKGTGSAEAVLQNAYQAIHNEMRGTSGQPPEGCAAPTVIVSNHNLTDTVQNKQLQAVLQWVAASELNVPILYFAGDDEGIQEKLLQLSAAAVDKGCSVGEVLQSVLRYEKERQLNEAVGNVTPLQLLDWLMVNL
# Variants of: B1
# Conditions: with akap3_human AKAP3, O75969
row,Variant,effect of a mutation on the interaction
1,L18A,decreasing interaction

# Variants of: B2
# Conditions: with rop1b_human ROPN1B, Q9BZX4
row,Variant,effect of a mutation on the interaction
1,L131P,decreasing interaction

# Variants of: B2
# Conditions: with kap2_human PRKAR2A
row,Variant,effect of a mutation on the interaction
1,L131P,decreasing interaction
